The target of assay [1] is T1, DHT03 chain C (SEQ ID NO: 59).
T1 chain: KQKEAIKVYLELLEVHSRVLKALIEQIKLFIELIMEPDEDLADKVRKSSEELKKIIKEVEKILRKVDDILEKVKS
Description: chains mixed and annealed, SEC, negative stain EM; A3B3C3 ring.

Assay [2] addresses T2, C3-DHT03-02 chain B.
T2 construct: three copies in the A3B3C3 ring
T2 chain: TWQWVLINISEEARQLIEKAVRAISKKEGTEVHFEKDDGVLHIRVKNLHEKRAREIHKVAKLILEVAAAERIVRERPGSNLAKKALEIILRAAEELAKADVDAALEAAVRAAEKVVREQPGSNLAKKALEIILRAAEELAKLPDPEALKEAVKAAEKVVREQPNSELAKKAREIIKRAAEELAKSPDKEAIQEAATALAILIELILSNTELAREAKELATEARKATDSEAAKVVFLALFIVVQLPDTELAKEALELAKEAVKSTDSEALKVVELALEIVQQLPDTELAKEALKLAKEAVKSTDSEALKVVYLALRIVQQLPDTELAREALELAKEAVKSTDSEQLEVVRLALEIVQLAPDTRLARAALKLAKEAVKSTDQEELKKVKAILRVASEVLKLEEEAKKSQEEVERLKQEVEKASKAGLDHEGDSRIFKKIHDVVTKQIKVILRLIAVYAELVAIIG
Described as above.

Assay [3] addresses T3, DHT01-4arm-02 chain B.
T3 construct: Strep-tag II was added to the N-terminus of chain B of DHT01 arms; also called C2-DHT01-04 chain B
T3 chain: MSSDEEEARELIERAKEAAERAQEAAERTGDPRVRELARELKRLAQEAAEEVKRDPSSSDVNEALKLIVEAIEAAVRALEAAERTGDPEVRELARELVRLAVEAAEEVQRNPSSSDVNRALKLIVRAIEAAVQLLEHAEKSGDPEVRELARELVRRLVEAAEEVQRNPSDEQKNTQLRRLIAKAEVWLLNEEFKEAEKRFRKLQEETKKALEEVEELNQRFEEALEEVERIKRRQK
In words: bicistronic expression, SAXS, negative stain EM; A2B2 ring.

Assay [4] has as its target T4, C3-DHT03-01 chain B.
T4 construct: three copies in the A3B3C3 ring; also called C3-DHT03-01-DHR82 chain B
T4 chain: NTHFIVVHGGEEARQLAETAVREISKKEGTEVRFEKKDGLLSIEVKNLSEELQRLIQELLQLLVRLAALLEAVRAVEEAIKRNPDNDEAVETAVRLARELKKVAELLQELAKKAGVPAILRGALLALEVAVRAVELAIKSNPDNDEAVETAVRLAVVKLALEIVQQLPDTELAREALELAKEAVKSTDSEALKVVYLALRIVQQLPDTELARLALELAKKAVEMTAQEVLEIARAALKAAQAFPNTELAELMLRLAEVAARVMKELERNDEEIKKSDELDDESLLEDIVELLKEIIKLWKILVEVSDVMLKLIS
In words: chains mixed and annealed, SEC, negative stain EM; A3B3C3 ring.

Assay [5] has as its target T5, DHT03_3arm_A21/B21/C82 chain C.
T5 construct: also called chain C DHR82 fusion; chain C of C3-DHT03-01-DHR82 and C4-DHT03-01-DHR82
T5 chain: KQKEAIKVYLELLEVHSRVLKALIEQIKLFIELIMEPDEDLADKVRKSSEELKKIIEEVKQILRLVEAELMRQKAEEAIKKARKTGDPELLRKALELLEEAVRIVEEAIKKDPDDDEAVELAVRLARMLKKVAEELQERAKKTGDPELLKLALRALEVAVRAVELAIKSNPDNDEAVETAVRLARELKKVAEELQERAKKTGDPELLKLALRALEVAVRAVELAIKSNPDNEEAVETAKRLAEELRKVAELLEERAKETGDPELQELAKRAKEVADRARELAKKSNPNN
Description: three components purified separately, mixed equimolar, heat annealed, SEC, negative stain EM. The text has this:
As is evident from the images in FIGS. 4c and 4d, the cyclic structures retain one of the original heterotrimer helical hairpins in each corner; these short, outward facing protein chains provide fusion points for further elaboration of higher order symmetric assemblies. To evaluate the potential for building up larger nanostructures using the rings as hubs, and explore the modularity of the designed building blocks, we replaced the original outward facing chain C helical hairpin with the chain C DHR82 fusion (as it was the largest 4-repeat DHR) from FIG. 3d, row 8. This was done for two designs (C3-DHT03-01 and C4-DHT03-01), with chain C replaced by fusion C82 through expressing and purifying the three components separately, mixing them in equal molar quantities, and reconstituting using heat annealing.
An AKTA PURE FPLC system was used. Heterotrimer bases, arm extensions, coiled coil C2 rings, and all constructs mentioned in SI were passed through a Cytvia Superdex S200 Increase 10/300 GL column, while C3/C4 rings made from DHT03 were passed through a Cytvia Superdex S6 Increase 10/300 GL column. The mobile phase was TBS (25 mM Tris-HCl pH 8.0, 100 mM NaCl or 25 mM Tris-HCl pH 8.0, 150 mM NaCl). Samples ran at a flow rate of 0.75 ml/min and fractions were collected at 0.5 ml.

For assay [6], the target named is T1, DHT03 chain C (SEQ ID NO: 59). Description: chains mixed and annealed, SEC, negative stain EM; A4B4C4 ring.
In assay [7] the target is T6, C4-DHT03-01 chain B.
T6 construct: four copies in the A4B4C4 ring; also called C4-DHT03-01-DHR82 chain B
T6 chain: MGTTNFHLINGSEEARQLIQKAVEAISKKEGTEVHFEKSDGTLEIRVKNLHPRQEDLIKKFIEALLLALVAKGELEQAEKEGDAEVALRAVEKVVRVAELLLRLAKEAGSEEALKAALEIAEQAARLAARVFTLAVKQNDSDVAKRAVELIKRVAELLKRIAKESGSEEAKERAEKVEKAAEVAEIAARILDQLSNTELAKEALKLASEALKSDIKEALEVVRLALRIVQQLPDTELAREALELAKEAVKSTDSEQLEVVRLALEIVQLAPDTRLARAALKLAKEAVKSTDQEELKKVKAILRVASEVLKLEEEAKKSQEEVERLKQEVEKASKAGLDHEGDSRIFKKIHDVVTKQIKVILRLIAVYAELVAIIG
Described as above.

Assay [8] concerns the target T7, DHT01-4arm-01 chain B.
T7 construct: Strep-tag II was added to the N-terminus of chain B of DHT01 arms
T7 chain: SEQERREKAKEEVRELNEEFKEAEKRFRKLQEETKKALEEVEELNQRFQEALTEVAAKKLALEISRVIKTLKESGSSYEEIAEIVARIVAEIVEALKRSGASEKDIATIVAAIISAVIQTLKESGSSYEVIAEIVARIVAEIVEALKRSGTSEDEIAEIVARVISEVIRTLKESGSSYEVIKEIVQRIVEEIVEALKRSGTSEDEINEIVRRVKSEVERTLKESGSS
Description: co-expression, pull-downs, SEC, native MS, SAXS; chains of one ABC heterotrimer.

In assay [9] the target is T8, DHT01-4arm-01 chain C.
T8 construct: also called DHT01-4arm-02 chain C; C2-DHT01-01 chain B
T8 chain: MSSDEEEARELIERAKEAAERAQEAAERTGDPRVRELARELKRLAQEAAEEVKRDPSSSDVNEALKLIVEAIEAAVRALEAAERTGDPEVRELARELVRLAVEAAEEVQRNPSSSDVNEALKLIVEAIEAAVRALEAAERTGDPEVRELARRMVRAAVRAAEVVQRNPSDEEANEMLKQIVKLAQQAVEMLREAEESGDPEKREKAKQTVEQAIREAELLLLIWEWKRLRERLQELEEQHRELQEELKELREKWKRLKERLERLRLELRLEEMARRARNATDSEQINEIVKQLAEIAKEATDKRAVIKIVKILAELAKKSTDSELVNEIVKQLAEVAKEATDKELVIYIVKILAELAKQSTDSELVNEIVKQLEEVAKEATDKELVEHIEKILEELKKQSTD
Described as above.

Assay [10] deals with T3, DHT01-4arm-02 chain B. Description: SEC and SDS-PAGE; chains of one ABC heterotrimer.

B1: C3-DHT03-02 chain A (designed binder)
chain: SSIFLLSNVDESARQLAEELVREISKKEGTEVRFEKDDGFLTIEVKNLSEERLREIARALQLIVDVANAERVVRERPGSNLAKKALEIILRAAEELAKLTLEASLKAAQIAAELVVREQPGSNLAEKAKTIILQARAAELAIRIEEQLKDTELAKEAKELATEAIKAQDKEALKVVELALKIVQQLPDTELAKEALKLAKEAVKSTDSEALKVVELALEIVQQLPDTELAKEALELAEEAVKSTDSEALKVVKLALEIVQQLPDTELAREALELAKEAVKSTDSEALKVVYLALRIVQQLPDTELARLALELAKKAVEMTAQEVLEIARAALKAAQAFPNTELAELMLRLAEVAARVMKELERNDEEIKKSDELDDESLLEDIVELLKEIIKLWKILVEVSDVMLKLIS
notes: three copies in the A3B3C3 ring
As to B1, the binding result in assay [1] and in [2] was “binds” each time.

B2: C2-DHT01-04 chain A (designed binder)
chain: DEEEKLRESLEEQKKRVKEIEREHEEIREALKRLQQSVLRQAVRLAKLGDDSEMINRIVKDLAEQAKEATDKREVIKIVKALAELAKNSTDRELINEIAKQLAEVAKEATDEELQRYIAKILIELAEQAIKEAERSLREGNPEKAREDVRLALELVRLLLEIAQALNLLEVLEEAARLAFEVARVAKEVGSPETARQARETAERLLEWAMKMIEEKAKKEKDRNDQSSDVNEAAKLIREAAEAAQRAREAASRTGDPEVKDLAWRMVEAALKAAAVVATNPSDEEANEMLKQIVKLAQQAVEMLREAEESGDPEKREKAKQTVEQAIREAELLLLIWEWKRLRERLQELEEQHRELQEELKELREKWKRLKERLERLRLELRLEEMARRARNATDSEQINEIVKQLAEIAKEATDKRAVIKIVKILAELAKKSTDSELVNEIVKQLAEVAKEATDKELVIYIVKILAELAKQSTDSELVNEIVKQLEEVAKEATDKELVEHIEKILEELKKQSTD
notes: two copies in the A2B2 ring
Turning to B2, the binding result in assay [3] was “binds”.

B3: C3-DHT03-01 chain A (designed binder)
chain: TTNFHLINGSEEARQLIQKAVEAISKKEGTEVHFEKSDGTLEIRVKNLHPRQEDLIKKFIEALLLALVAKGELEQAEKEGDAEVALRAVEKVVRVAELLLRLAKEAGSEEALKAALEIAEQAARLAKRVLELAEKQGDAEVALKAVLLVVIVAALLVKIAKESGSEEAKERATRVAREASRLADRVEELARKQNNEDVTLAAKVLKLAADIIAQLMNTELAEEAAQLATEALKATDREQLEVVRLALEIVQLAPDTRLARAALKLAKEAVKSTDQEELKKVKAILRVASEVLKLEEEAKKSQEEVERLKQEVEKASKAGLDHEGDSRIFKKIHDVVTKQIKVILRLIAVYAELVAIIG
notes: three copies in the A3B3C3 ring; also called C3-DHT03-01-DHR82 chain A
In the case of B3, the binding result in assay [4], in [1] and in [5] was “binds” each time.

B4: C4-DHT03-01 chain A (designed binder)
chain: MGNTHFIVVHGGEEARQLAETAVREISKKEGTEVRFEKKDGLLSIEVKNLSEELQRLIQELLQLLVRLAALLEAVRAVEEAIKRNPDNDEAVETAVRLARELKKVAELLQELAKKAGVPAILRGALLALLVAARAVALAALANSKNDEAREALKRLAEELKKVAKELKERAKKTKDSELERLALAAELMALAAEIVAQLANTELAREALELATEAIKASDDEALRVVKLALRIVQQLPDTELARLALELAKKAVEMTAQEVLEIARAALKAAQAFPNTELAELMLRLAEVAARVMKELERNDEEIKKSDELDDESLLEDIVELLKEIIKLWKILVEVSDVMLKLIS
notes: four copies in the A4B4C4 ring; also called C4-DHT03-01-DHR82 chain A
B4: the binding result in [6], in assay [7] and in [5] was “binds” throughout.

B5: DHT01-4arm-01 chain A (designed binder)
chain: DEEEKLRESLEEQKKRVKEIEREHEEIREALKRLQQSVLRQAVRLAKLGDDSEMINRIVKDLAEQAKEATDKREVIKIVKALAELAKNSTDSELVNEIVKQLAEVAKEATDKELVIYIVKILAELAKQSTDSELVNEIVKQLEEVAKEATDKELVEHIEKILEELKKQSTD
notes: also called DHT01-4arm-02 chain A
Turning to B5, the binding result in assay [8], in assay [9] and in [10] was “binds” in each case.
